Assay results published in patent US9974753B2, “Nanoparticles comprising a vegetable hydrophobic protein and a water miscible non-volatile organic solvent and uses thereof” (BIONANOPLUS, S.L., priority 2012, dated 2018).

Test: Solubility of zein in PG binary solvent mixtures (turbidity change at 405 nm)
Assay type: physicochemical
Experimental: The solubility of zein in different binary mixtures of PG and other water miscible non-volatile organic solvents that are miscible with PG was studied. This example studies the incorporation of different surfactants or solvents to enhance the solubility of a molecule in PG, if necessary. For this purpose, turbidity change of PG zein solution was monitored at 405 nm after the addition of different amounts of water, glycerol, Labrasol®, Tween® 80 or Lutrol® L 44 to 5 mL of zein solution in PG (2.5% w/v), at room temperature. The end point zone, at which zein was precipitated from PG solution, was calculated monitoring the turbidity change at 405 nm, that is, the absorbance increase (in percentage) after each solvent/surfactant addition with respect to the initial absorbance value in a spectrophotometer (Labsystems iEMS Reader MF, Finland).

zein
End point range of zein precipitation from PG solution (Tween® 80 added to zein 2.5% w/v in PG): 65-75 % (v/v)
End point range of zein precipitation from PG solution (glycerol added to zein 2.5% w/v in PG): 45-55 % v/v
